According to publication PMC7591462, “The Diversity and Similarity of Transmembrane Trimerization of TNF Receptors” (Frontiers in Cell and Developmental Biology, 2020):

Biological target: the molecule itself
Assay: SDS-PAGE of bicelle-reconstituted protein; protein reconstituted in DMPC-DH6PC bicelles (q = 0.5; DMPC:DH6PC approximately 1:2), 20 mM sodium phosphate pH 6.8; mixed with LDS loading buffer without heating or reducing agents; NuPAGE 12% gel, 200 V on ice

B1: human TNFR1 TM fragment, residue 209-238 (TNFR1 TMH), C223A M233A (domain or fragment, UniProt P19438 209-238, looked up)
chain: GTTVLLPLVIFFGLALLSLLFIGLAYRYQR
notes: TNFR1 (tumor necrosis factor receptor 1), human, isoform 1, transmembrane fragment residues 209-238 with C223A and M233A; Released from His9-TrpLE by cyanogen bromide at a methionine added between TrpLE and the fragment; Isotope-labelled (15N, 13C, 2H) for NMR; also called TNFR TMH; TMH of TNFR1; source: reconstituted in DMPC-DH6PC bicelles; not shown: His9, N-terminal, cleaved; TrpLE, …
stoichiometry N: 3
